Test results: publication PMC10716038, “Talin and kindlin use integrin tail allostery and direct binding to activate integrins” (Nature Structural & Molecular Biology, 2023)
Positions count from the first letter of the chain named. Names may count otherwise. “And” between values parts separate entries of the source, which are not always exact repeats. Identical values can stand only once. No end group written: not given here.

T1: biotinylated integrin β3 transmembrane and cytoplasmic tail polypeptide (β3-TM–CT) in nanodiscs (UniProt O54890 715-787, biotin (biotin-maleimide))
T1 construct: integrin β3 TM and CT, residues 715-787; embedded in MSP2N2 nanodiscs with 10% PIP2 or PIP3 and 90% DMPC; held on streptavidin beads; also called b3; source: E. coli BL21 (DE3) Rosetta 2, inclusion bodies, purified (IMAC, cation exchange)
T1 sequence (looked up): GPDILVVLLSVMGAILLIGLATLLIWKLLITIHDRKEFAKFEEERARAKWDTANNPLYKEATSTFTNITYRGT

B1: THD1 K402E (domain or fragment, UniProt P26039 1-405, looked up)
chain: MVALSLKISIGNVVKTMQFEPSTMVYDACRMIRERIPEALAGPPNDFGLFLSDDDPKKGIWLEAGKALDYYMLRNGDTMEYRKKQRPLKIRMLDGTVKTIMVDDSKTVTDMLMTICARIGITNHDEYSLVRELMEEKKDEGTGTLRKDKTLLRDEKKMEKLKQKLHTDDELNWLDHGRTLREQGVEEHETLLLRRKFFYSDQNVDSRDPVQLNLLYVQARDDILNGSHPVSFDKACEFAGFQCQIQFGPHNEQKHKAGFLDLKDFLPKEYVKQKGERKIFQAHKNCGQMSEIEAKVRYVKLARSLKTYGVSFFLVKEKMKGKNKLVPRLLGITKECVMRVDEKTKEVIQEWSLTNIKRWAASPKSFTLDFGDYQDGYYSVQTTEGEQIAQLIAGYIDIILKEKKS
notes: talin-1 (TLN1) head domain, residues 1-405, K402E; source: E. coli (DE3) Rosetta 2, purified (IMAC, SEC); not shown: His10-SUMO, N-terminal, cleaved
B2: kindlin-2 (KIND2) (natural protein, UniProt Q8CIB5 1-680, looked up)
chain: MALDGIRMPDGCYADGTWELSVHVTDLNRDVTLRVTGEVHIGGVMLKLVEKLDVKKDWSDHALWWEKKRTWLLKTHWTLDKCGIQADAKLQFTPQHKLLRLQLPNMKYVKVKVNFSDRVFKAVSDICKTFNIRHPEELSLLKKPRDPTKKKKKKLDDQSEDEALELEGPLIMPGSGSIYSSPGLYSKTMTPTYDAHDGSPLSPTSAWFGDSALSEGNPGILAVSQPVTSPEILAKMFKPQALLDKAKTNQGWLDSSRSLMEQDVKENEALLLRFKYYSFFDLNPKYDAIRINQLYEQAKWALLLEEIECTEEEMMMFAALQYHINKLSIMTSENHLNNSDKEVDEVDAALSDLEITLEGGKTSTILGDITSIPELADYIKVFKPKKLTLKGYKQYWCTFKDTSISCYKSREESSGTPAHQLNLRGCEVTPDVNISGQKFNIKLLIPVAEGMNEIWLRCDNEKQYAHWMAACRLASKGKTMADSSYNLEVQNILSFLKMQHLNPDPQLIPDQITTDVNPECLVSPRYLKKYKSKQITARILEAHQNVAQMSLIEAKMRFIQAWQSLPEFGITHFIARFQGGKREELIGIAYNRLIRMDASTGDAIKTWRFSNMKQWNVNWEIKMVTVEFADEVRLSFICTEVDCKVVHEFIGGYIFLSTRAKDQNESLDEEMFYKLTSGWV
notes: kindlin-2 (KIND2), recombinant; with the F1 loop and the PH domain (unlike ΔKIND2); source: E. coli Rosetta, purified (IMAC, SEC); not shown: His10-SUMO, N-terminal, cleaved
B3: KIND2 Y13A (natural protein, UniProt Q8CIB5 1-680, looked up)
chain: B2 chain with Y13A
notes: kindlin-2 (KIND2), recombinant, Y13A; source: E. coli Rosetta, purified (IMAC, SEC); not shown: His10-SUMO, N-terminal, cleaved
B4: ATTO 488-labeled talin-binding-impaired β3-CT Y772A (peptide, UniProt O54890 741-787, looked up)
peptide: {ATTO 488}-KLLITIHDRKEFAKFEEERARAKWDTANNPLAKEATSTFTNITYRGT
notes: integrin β3 cytoplasmic tail (β3-CT), Y772A; source: synthetic peptide (MPIB Core Facility)

Columns and labels:
Conditions in all cases: both partners purified
[1] = target: T2, biotinylated integrin β1 transmembrane and cytoplasmic tail polypeptide (β1-TM–CT) in nanodiscs (UniProt P09055 726-798, biotin (biotin-maleimide)); assay: flow cytometry-based reporter-displacement assay (FC-RDA) on beads; biotinylated TM–CT in 10% PIP2/90% DMPC nanodiscs on streptavidin beads; reporter 50 nM 647–KIND2, unlabelled competitor titrated; 20 mM Tris pH 7.5, 200 mM NaCl, room temperature; IC50 of individual experiments; charged lipids contribute to the binding
T2 construct: integrin β1 TM and CT, residues 726-798; embedded in MSP2N2 nanodiscs with 10% PIP2 or PIP3 and 90% DMPC, on average one TM–CT per nanodisc; held on streptavidin beads; also called b1; source: E. coli BL21 (DE3) Rosetta 2, inclusion bodies, purified (IMAC, cation exchange)
T2 sequence (P09055 726-798): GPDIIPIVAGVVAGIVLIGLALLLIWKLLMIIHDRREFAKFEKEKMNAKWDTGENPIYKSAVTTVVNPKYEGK

[2] = target: T1, biotinylated integrin β3 transmembrane …; assay: as above
[3] = target: T2, biotinylated integrin β1 transmembrane …; assay: flow cytometry-based reporter-displacement assay (FC-RDA) on beads; biotinylated TM–CT in 10% PIP3/90% DMPC nanodiscs on streptavidin beads; reporter 50 nM 647–KIND2, unlabelled competitor titrated; 20 mM Tris pH 7.5, 200 mM NaCl, room temperature; IC50 of individual experiments; charged lipids contribute to the binding
[4] = target: T2, biotinylated integrin β1 transmembrane …; assay: flow cytometry-based reporter-displacement assay (FC-RDA) on beads; biotinylated TM–CT in PIP2-containing nanodiscs on streptavidin beads; reporter 565–THD1-K402E, unlabelled competitor titrated; IC50 of individual experiments
[5] = target: T1, biotinylated integrin β3 transmembrane …; assay: as above
[6] = target: T2, biotinylated integrin β1 transmembrane …; assay: flow cytometry-based reporter-displacement assay (FC-RDA) on beads; biotinylated TM–CT in 10% PIP2/90% DMPC nanodiscs on streptavidin beads; reporter 50 nM 647–KIND2, unlabelled competitor titrated; 20 mM Tris pH 7.5, 200 mM NaCl, room temperature; IC50 of individual experiments; charged lipids contribute to the binding; remark: listed apart in the source
[7] = target: T1, biotinylated integrin β3 transmembrane …; assay: flow cytometry-based reporter-displacement assay (FC-RDA) on beads; biotinylated TM–CT in 10% PIP3/90% DMPC nanodiscs on streptavidin beads; reporter 100 nM 565–THD1, unlabelled competitor titrated; 20 mM Tris pH 7.5, 200 mM NaCl, room temperature; IC50 of individual experiments; charged lipids contribute to the binding
[8] = target: T1, biotinylated integrin β3 transmembrane …; assay: flow cytometry-based reporter-displacement assay (FC-RDA) on beads; biotinylated TM–CT in 10% PIP3/90% DMPC nanodiscs on streptavidin beads; reporter 50 nM 647–KIND2, unlabelled competitor titrated; 20 mM Tris pH 7.5, 200 mM NaCl, room temperature; IC50 of individual experiments; charged lipids contribute to the binding
[9] = target: T2, biotinylated integrin β1 transmembrane …; assay: flow cytometry-based reporter-displacement assay (FC-RDA) on beads; biotinylated TM–CT in PIP2-containing nanodiscs on streptavidin beads; reporter 647–KIND2-Y13A, unlabelled competitor titrated; IC50 of individual experiments
[10] = target: T1, biotinylated integrin β3 transmembrane …; assay: as above
[11] = target: T2, biotinylated integrin β1 transmembrane …; assay: flow cytometry-based reporter-displacement assay (FC-RDA) on beads; biotinylated TM–CT in PIP3-containing nanodiscs on streptavidin beads; reporter 647–KIND2-Y13A, unlabelled competitor titrated; IC50 of individual experiments
[12] = target: T1, biotinylated integrin β3 transmembrane …; assay: as above
[13] = target: T2, biotinylated integrin β1 transmembrane …; assay: flow cytometry-based reporter-displacement assay (FC-RDA) on beads; biotinylated TM–CT in 10% PIP2/90% DMPC nanodiscs on streptavidin beads; reporter 100 nM 565–THD1, unlabelled competitor titrated; 20 mM Tris pH 7.5, 200 mM NaCl, room temperature; IC50 of individual experiments; charged lipids contribute to the binding
[14] = target: T2, biotinylated integrin β1 transmembrane …; assay: flow cytometry-based reporter-displacement assay (FC-RDA) on beads; biotinylated TM–CT in 10% PIP3/90% DMPC nanodiscs on streptavidin beads; reporter 100 nM 565–THD1, unlabelled competitor titrated; 20 mM Tris pH 7.5, 200 mM NaCl, room temperature; IC50 of individual experiments; charged lipids contribute to the binding
[15] = target: T1, biotinylated integrin β3 transmembrane …; assay: as above; remark: listed apart in the source
[16] = target: B2; assay: MST; apparent; KIND2 titrated to 488–β3-CT Y772A in the presence of 500 µM THD1; MST buffer
[17] = target: B2; assay: MST; unlabelled protein titrated to 50-200 nM ATTO 488-labelled β-CT peptide, no third protein; 20 mM Tris pH 7.5, 200 mM NaCl, 1 mM TCEP, 0.05% Tween-20; Kd of individual titrations (in S0002 mean and sd, n = 2)

Binder: B1
IC50 [1]: 271 nM and 366 nM and 201 nM and 258 nM | IC50 [2]: 186 nM and 206 nM and 276 nM and 136 nM | IC50 [3]: 332 nM and 291 nM and 217 nM and 447 nM

Binder: B2
IC50 [4]: 514 nM and 512 nM and 396 nM and 487 nM | IC50 [5]: 116 nM and 65 nM | IC50 [6]: 151 nM and 155 nM and 176 nM and 77 nM | IC50 [7]: 760 nM and 573 nM and 678 nM | IC50 [8]: 79 nM and 90 nM and 69 nM

Binder: B3
IC50 [9]: 78 nM and 91 nM and 124 nM | IC50 [10]: 112 nM and 238 nM and 305 nM | IC50 [11]: 56 nM and 119 nM and 60 nM | IC50 [12]: 121 nM and 167 nM and 233 nM | IC50 [13]: 203 nM and 479 nM and 290 nM | IC50 [14]: 168 nM and 223 nM and 116 nM | IC50 [15]: 176 nM and 234 nM and 205 nM and 83 nM

Binder: B4
Kd [16]: 17.9 µM and 15.3 µM and 23.3 µM and 13.4 µM | Kd [17]: 20.3 µM and 13.8 µM and 12.5 µM
